B1: antibody 2729 (antibody, V domains shown)
VH: QVTLKESGPVLVKPTETLTLTCTVSGFSLSNARMGVSWIRQPPGKALEWLAHIFSNDEKSYSTYLKSRLTISKDSSKSQVVLTMTIMDPVDTATYYCARTAGRYSSRWGHYYYYMDVWGKGTTVTVSS
VL: NFMLTQPHSVSESPGKTVTISCTGSNGSIASNFMQWYQQRPGSAPTIVIYEDNQRPSGVPDRFSGSIDGSSNSASLTISGLKTEDEADYYCQSYDSSDSDLGVFGGGTKLTVL
B2: antibody 980 (antibody, V domains shown)
VH: QVQLVESGGGVVQPGRSLRLSCAASGFTFSRYGMHWVRQAPGKGLEWVALISSGGSNKYYADSVKGRFTISRDNSKNTLYLEMNSLRAEDTAVYYCAKDAIYDYIWGAYRENWFDPWGQGTLVTVSS
VL: DIQMTQSPSSLSASVGDRVTITCRASQSISNYLNWYQQKPGKAPNLLIYAASSLQSGVPSRFSGSGSGTDFTLTISSLQPEDFATYYCQQTSSPPLTFGQGTKVEIK
B3: antibody 2706 (antibody, V domains shown)
VH: QVQLVQSGAEVKKPGSSVKVSCKASGGTFSTYAISWVRQAPGQGLEWMGGIIPLFATANYAQNFQGRVTITADKSTSTAYMELSSLRSEDTAVYYCASVRLHLEELSLSHQGDYYYGLDVWGQGTTVTVSS
VL: DIQMTQSPSSLSASVADRVTITCQASQDISHYLNWYQQKPGKAPQLLIYDASKLETGAPSRFSGSGSGTDFTFTISSLQPEDIATYYCQQYDHLPLTFGGGSKVEIK
B4: antibody 2892 (antibody, V domains shown)
VH: QVQLVQSGAEVKKPGSSVKVSCKASGDAFISYAISWVRQAPGQGLEWMGGIIPIFGTANYAQKFQGRVTISADESTSTAYMELSRLRSEDTAVYYCARGGPEPYGSGSGYTPRYNWFDPWGQGTLVTVSS
VL: QSALTQPRSVSGSPGQSVTISCTGTSSDVGGYNYVSWYQQHPGKAPKFMIYDVNRRPSGVPDRFSGSKSGNTASLTISGLQAEDEADYYCCSYAGTYTWVFGGGTKLTVL
B5: antibody 2050 (antibody, V domains shown)
VH: QVQLVQSGAEVKKPGASVKVPCKVSGYTFTDHFIHWVRQAPGQGLEWMGWISPNSGGRNYTQKFQGRVTLTRDTAITTVHMDLSSLTPDDTAVYYCARDVRWAQLQGGFDLWGQGTMVTVSS
VL: QSALTQPASVSGSPGQSITISCTGTSSDVGSYNLVSWYQQHPGKAPKLMIYEVSKRPSGVSNRFSGSKSGNTASLTISGLQADDEADYYCCSYAGDNNFLFGGGTSLTVL
B6: antibody 2020 (antibody, V domains shown)
VH: QVQLVQSGAEVKKPGASVKVSCKASGYTFTDYFMHWVRQAPGQGLEWMGWVNPLSGGTNFAQKFQGRVTMTSDTSITTVYMELSRLRSDDTAVYYCARDPPLYSSTYGMDVWGQGTTVTVSS
VL: QSALTQPASVSGSPGQSITISCTGTSSDVGAYNYVSWYQQHPGKAPKLMIYDVSDRPSGVSNRFSGSKSGNTASLTISGLQAEDEADYYCSSYTISSSVVFGGGTKLTVL
B7: antibody 4441 (antibody, V domains shown)
VH: EVQLVESGGGLVQPGRSLRLSCAASGLTFEDYAMHWVRQPPGKGLEWVSGVSWNSGTIGYADSVKGRFTISRDNAKNSLYLHMRSLGAEDTAMYYCAKDMGGRFSFFSLENDAFDIWGQGTMVIVSS
VL: SYELTQPPSVSVSPGQTARITCSGDALPKQSTYWYQQKPGQAPVLVIYKDIERPSGIPERFSGSSSGTTVTLTISGVQAEDEADYYCQSADSSDTYVFGTGTKVTVL
B8: antibody 1231 (antibody, V domains shown)
VH: QVQLVQSGSELKKPGASVKVSCTGYGYTFTSYAMNWVRQAPGQGLEWMGWINTNTGHPAYAQGFTGRFVFSLDSSVSTAYLQISSLKAEDTAVYYCATTIRAGGYFDFWGQGTLVTVSS
VL: DIQLTQSPSFLSASVGDRVTITCRASQGISSYLAWFQQKPGKAPKLLIYVVSILQSGVPSRFSGSGSGTEFTLTISSLQPEDFATYYCQQLNSYPYTFGQGTKLEIK
B9: antibody 1213 (antibody, V domains shown)
VH: QMQLVQSGAEVKKTGSSVKVSCEASENTFTNRYLHWVRQAPGQALEWMGWITPFQGNTHYAQKFQDRVTITRDRSMNTVYMELSSLRSEDTAIYYCASGGQYGPGSYYFEFWGQGTLVTVSS
VL: EIVMTQSPATLSVSPGERATLSCRASQSIRNNLAWYRQKPGQAPRLLIYGASTRAAGVPARFSGSGSGTEFTLTISSLQSEDFAVYYCQQYINWPPLTFGGGTKVEIK
B10: antibody 1227 (antibody, V domains shown)
VH: B9 VH with E26G, N27Y, H59N, R74M, I93K, P104A, F109L, F111D
VL: B9 VL with I29V, N31S, A56T, K104R
B11: antibody 1679 (antibody, V domains shown)
VH: QITLKESGPTLVKPTQTLTLTCTFSGFSLSTVGVGVAWIRQPPGKALEWLALIYWDDDKRYSPSLKSRLTITKDTSKNHVVLTMTNMDPVDTATYYCAHHIIAALVDVWGKGTTVTVSS
VL: QSALTQPASVSGSPGQSITISCTGTSSDVGGNNYVSWYQHHPGEAPKLMIYEVSNRPSGVSNRFSGSKSGNTASLTISGLQAEDEADYYCSSYTTSSTLVVFGGGSKLTVL
B12: antibody 2619 (antibody, V domains shown)
VH: EVQLVESGGGLVQPGRSLRLSCAASGFTFDDYAMHWVRQAPGKGLEWVSGISWNSGSIGYADSVKGRFTLSRDNAKNSLFLQMDSLRAEDTALYYCAKDVSYRSGSYYRFWGGSGSWGQGTLVTVSS
VL: B2 VL with Q27L, S30R, N31S, A43P, N45K, T91S, S92Y, P94T, Q100G
B13: antibody 935 (antibody, V domains shown)
VH: EVQLVESGGGLVQPGGSLRLSCAASGFTVSSNYMSWVRQAPGKGLEWVSVIYSGGSTFYADSVKGRFTISRDNSRNTLYLQMNSLRAEDTAVYYCARDWGEFFFDFWGQGALVTVSS
VL: EIVLTQSPGTLSLSPGERATLSCRASQTISSSYLAWYQQKPGQAPRLLISGASSRATGIPDRFSGSGSGTDFTLTISRLEPEDFAVYYCQQYGSSPRTFGQGTNVEIK
B14: antibody 3086 (antibody, V domains shown)
VH: QVQLQESGPGLVKPSETLSLTCTVSGGSISGHYWSWIRQPPGKGLEWIGYIYYSGSTNYNPSLKSRVTISVDTSVNQFSLKLSSVTAADTAVYYCARQEARDAVGNYFFDSWGQGTLVTVSS
VL: QSALTQPASVSGSPGQSITISCSGTSSDIGSYDLVSWYQQHPGKAPKLLIYDVTKRPSGVSHRFSGSKSGNTASLTISGLQGEDEADYYCCSYVHFSTWVFGGGTKLTVL
B15: antibody 1864 (antibody, V domains shown)
VH: QVQLQESGPGLVKPSETLSLTCTVSGGSINYYYWSWIRQPPGKGLEWIGFIYSSGTTNYNPSLKSRVTMSVDSSKSQFSLKLSSVTAADSAVYYCARHSRSCTNGVCQTYYYYALDVWGHGTTVTVSS
VL: QSVLTQPPSVSGAPGQRVTISCTGSSSNIGAGYDVHWYQQLPGTAPKLLIYGNSNRPSGVPDRFSASKSGTSASLAIAGLQPEDEGDYYCQSYDGSLSESGVFGGGTRLTVL
B16: antibody 1870 (antibody, V domains shown)
VH: B15 VH with T23S, S73T, S76N
VL: B15 VL with P82A
B17: antibody 1851 (antibody, V domains shown)
VH: B15 VH with P40S
VL: B15 VL
B18: antibody 1826 (antibody, V domains shown)
VH: QVQLQESGPGLVKPSETLSLTCSVTGGSTNYYYWSWIRQPPGKGLEWIGYIYYSGTTNYNPSLKDRVTMSVDKSKTQLSLKLNSVTAADTAVYYCARHARHCTNGVCQTYYYYGLDVWGLGTTVAVSA
VL: QSVLTQPPSVSAAPGQRVTISCSGSSSNIGAGYDVHWYQHLPGTAPKLLIYNNNNRPSGVPDRFSASRSGTSASLAITGVQTEDEADYYCQSFDGRLSESGVFGGGTKLTVL

Where a chain is given by its changes, count along the chain named. Where only a bound is given, the exact number is not on record here.

One test has as its target S2 subunit of the SARS-CoV-2 spike protein, WA01/2020 strain (SARS-CoV-2, WA01/2020 strain, UniProt P0DTC2 686-1213). The experiment in a line: ELISA, antibody at 0.1 ug/mL. On the technique in general: ELISA stands for enzyme-linked immunosorbent assay.
With B1, the binding result was “no binding (tested: 0.1 ug/mL)”.
Same read-out and setting: next, B2: “no binding (tested: 0.1 ug/mL)”; B3: “no binding (tested: 0.1 ug/mL)”; B4: “no binding (tested: 0.1 ug/mL)”.
Consider B5, for which the binding result was “no binding (tested: 0.1 ug/mL)”.
B6: the binding result is listed as “no binding (tested: 0.1 ug/mL)”.
With B7, the binding result was “no binding (tested: 0.1 ug/mL)”.

A further test deals with T1, SARS-CoV-2 nucleocapsid (N) protein (SARS-CoV-2, UniProt P0DTC9 1-419). The experiment in a line: ELISA, antibody at 0.1 ug/mL.
As for B1, the binding result is given as “no binding (tested: 0.1 ug/mL)”.
On the same count and under the same terms, to B2 belongs “no binding (tested: 0.1 ug/mL)”; to B3, “no binding (tested: 0.1 ug/mL)”; to B4, “no binding (tested: 0.1 ug/mL)”.
As for B5, the binding result is reported as “no binding (tested: 0.1 ug/mL)”.
On the same count and under the same terms, to B6 belongs “no binding (tested: 0.1 ug/mL)”.
Regarding B7, the binding result is on record as “no binding (tested: 0.1 ug/mL)”.

A further test has as its target SARS-CoV-2 spike protein, WA1/2020, borne on lentiviral pseudovirus (SARS-CoV-2, WA01/2020 strain, UniProt P0DTC2 14-1273). The experiment in a line: cell-based or functional assay.
As to B8, the “Pseudo Neut, WA1/2020 IC50 (pM)” value was determined as 95000 pM.
With B1, the “Pseudo Neut, WA1/2020 IC50 (pM)” value was 584 pM.
B9: the “Pseudo Neut, WA1/2020 IC50 (pM)” value amounted to 90600 pM.
In the case of B10, the “Pseudo Neut, WA1/2020 IC50 (pM)” value amounted to 116000 pM.
Take B11: the “Pseudo Neut, WA1/2020 IC50 (pM)” value was above 163 pM.
With B2, the “Pseudo Neut, WA1/2020 IC50 (pM)” value came out at 952 pM.
In the case of B12, the “Pseudo Neut, WA1/2020 IC50 (pM)” value worked out at 213 pM.
On to B3, for which the “Pseudo Neut, WA1/2020 IC50 (pM)” value is 795 pM.
As for B4, the “Pseudo Neut, WA1/2020 IC50 (pM)” value was found to be 65 pM.
In the case of B5, the “Pseudo Neut, WA1/2020 IC50 (pM)” value stood at 427 pM.
Consider B6, for which the “Pseudo Neut, WA1/2020 IC50 (pM)” value stood at 214 pM.
In the case of B13, the “Pseudo Neut, WA1/2020 IC50 (pM)” value worked out at 420 pM.
Consider B7, for which the “Pseudo Neut, WA1/2020 IC50 (pM)” value was found to be 276 pM.
As to B14, the “Pseudo Neut, WA1/2020 IC50 (pM)” value was found to be 82 pM.

A further test concerns the target S1 subunit of the SARS-CoV-2 spike protein, WA01/2020 strain (SARS-CoV-2, WA01/2020 strain, UniProt P0DTC2 16-685). The experiment in a line: ELISA screening, antibody concentration not given.
As for B15, the binding result was “no binding (tested: not printed)”.
With B16, the binding result is given as “no binding (tested: not printed)”.
The same measure, in the same setting: next, B17: “no binding (tested: not printed)”; B18: “no binding (tested: not printed)”.

In another test the target is T1, SARS-CoV-2 nucleocapsid (N) protein. The test is described as follows: ELISA screening, antibody concentration not given.
As to B15, the binding result is “no binding (tested: not printed)”.
Turning to B16, the binding result is recorded as “no binding (tested: not printed)”.
On to B17, for which the binding result is “no binding (tested: not printed)”.
Same read-out and setting: to B18 belongs “no binding (tested: not printed)”.

(Values after patent US20230382979A1 (ADAPTIVE BIOTECHNOLOGIES, published 2023).)
